# Where a SMILES comes first, the peptide text is derived from it. The star is where a group is joined. DOTA = O=C(O)CN1CCN(CC(=O)O)CCN(CC(=O)*)CCN(CC(=O)O)CC1
# Legend:
# [1] = format: in vitro ADME; conditions: mouse, serum
# Protocol: Labeling of RP-832 and MART-1 with ^68Ga was accomplished by adding 10 μg of peptide to 500 μCi of ^68GaCl3 in 50 μL of 1 M sodium acetate buffer (pH 4.5). The reactions were incubated in a thermomixer at 95 degrees Celsius for 14 minutes with 300 rpm agitation. Incorporation of the ^68Ga was determined by radio-High Performance Liquid Chromatography (HPLC) immediately after the reaction. Analysis was performed using a C-18 column. The gradient elution system utilized mobile phase A (100% water 0.1% TFA) and mobile phase C (Acetonitrile containing 0.1% TFA) with a flow rate of 1.0 mL/min. The gradient started with 100% A and was increased to 100% C over 6.67 minutes and then returned to the initial gradient conditions within 4.66 minutes. […] The mixtures were incubated at 37 degrees Celsius with 400 rpm agitation up to three hours. Aliquots were removed at different time points (30 minutes, 1, 2, 3 h) to evaluate stability and analyzed using radio-HPLC as described above. All experiments were completed in triplicate.
# [2] = in vivo; set-up: species or system BALB/c mice; conditions: BALB/c, mouse, total radioactivity
# Protocol: (§1) 4T1 cells, a mouse breast cancer cell line (ATCC), and CT26 cells, a mouse colon carcinoma cell line (ATCC), were cultured in RPMI-1640 medium (ATCC) with 10 percent fetal bovine serum and 0.1 percent gentamicin at 37 degrees Celsius with 5 percent CO2. Wild-type BALB/c mice (Charles River) were used for syngeneic 4T1 and CT26 tumor models and were subcutaneously injected in the shoulder with 200,000 4T1 cells and 2×10^6 CT26 cells (with Matrigel). Tumors were allowed to grow for 10 days. Dynamic imaging studies were performed with a GNEXT small animal PET/CT (SOFIE). […] After 45 minutes, a high-resolution CT scan was obtained for anatomical reference. […] After 1 hour, a high-resolution CT scan was obtained for anatomical reference. During imaging, mice were anesthetized with 2.5 percent isoflurane/oxygen. The PET data was reconstructed into 5-minute time frames. Regions of interest (ROI) were drawn based on the CT anatomical guidelines. The mean standardized uptake value (SUV) was quantified using VivoQuant software with the equation: Where C is the activity concentration in tissue, dose is the injected dose, and weight is the body weight of the mouse. Statistical analysis was conducted with Graphpad Prism software.
# [3] = tested on: syngeneic CT26 tumors; assay: in vivo; set-up: species or system BALB/c mice; conditions: mouse
# Protocol: as §1
# [4] = tested on: syngeneic 4T1 tumors; assay: in vivo; set-up: species or system BALB/c mice; conditions: mouse
# Protocol: as §1
# [5] = in vivo; set-up: species or system BALB/c mice; conditions: BALB/c, mouse, total radioactivity, average percent injected dose per gram of organ
# Protocol: 4T1 cells, a mouse breast cancer cell line (ATCC), and CT26 cells, a mouse colon carcinoma cell line (ATCC), were cultured in RPMI-1640 medium (ATCC) with 10 percent fetal bovine serum and 0.1 percent gentamicin at 37 degrees Celsius with 5 percent CO2. Wild-type BALB/c mice (Charles River) were used for syngeneic 4T1 and CT26 tumor models and were subcutaneously injected in the shoulder with 200,000 4T1 cells and 2×10^6 CT26 cells (with Matrigel). Tumors were allowed to grow for 10 days. Following the [^68Ga]832c imaging studies, animals were euthanized, and organs of interest removed and assessed for radioactivity. For all biodistribution studies, specific uptake for each tissue was measured with background and decay correction and expressed as percent injected dose per gram of tissue (% ID/g) as calculated by normalization to the total activity injected.
# [6] = biological target: T1, Recombinant human CD206 (Homo sapiens, UniProt P22897); assay: Surface plasmon resonance (Biacore T200), immobilized CD206; format: binding; conditions: all concentrations (0.5 uM-10 uM)
# T1 construct: purchased R&D systems 2534-MR-050
# T1 sequence (P22897 19-1456): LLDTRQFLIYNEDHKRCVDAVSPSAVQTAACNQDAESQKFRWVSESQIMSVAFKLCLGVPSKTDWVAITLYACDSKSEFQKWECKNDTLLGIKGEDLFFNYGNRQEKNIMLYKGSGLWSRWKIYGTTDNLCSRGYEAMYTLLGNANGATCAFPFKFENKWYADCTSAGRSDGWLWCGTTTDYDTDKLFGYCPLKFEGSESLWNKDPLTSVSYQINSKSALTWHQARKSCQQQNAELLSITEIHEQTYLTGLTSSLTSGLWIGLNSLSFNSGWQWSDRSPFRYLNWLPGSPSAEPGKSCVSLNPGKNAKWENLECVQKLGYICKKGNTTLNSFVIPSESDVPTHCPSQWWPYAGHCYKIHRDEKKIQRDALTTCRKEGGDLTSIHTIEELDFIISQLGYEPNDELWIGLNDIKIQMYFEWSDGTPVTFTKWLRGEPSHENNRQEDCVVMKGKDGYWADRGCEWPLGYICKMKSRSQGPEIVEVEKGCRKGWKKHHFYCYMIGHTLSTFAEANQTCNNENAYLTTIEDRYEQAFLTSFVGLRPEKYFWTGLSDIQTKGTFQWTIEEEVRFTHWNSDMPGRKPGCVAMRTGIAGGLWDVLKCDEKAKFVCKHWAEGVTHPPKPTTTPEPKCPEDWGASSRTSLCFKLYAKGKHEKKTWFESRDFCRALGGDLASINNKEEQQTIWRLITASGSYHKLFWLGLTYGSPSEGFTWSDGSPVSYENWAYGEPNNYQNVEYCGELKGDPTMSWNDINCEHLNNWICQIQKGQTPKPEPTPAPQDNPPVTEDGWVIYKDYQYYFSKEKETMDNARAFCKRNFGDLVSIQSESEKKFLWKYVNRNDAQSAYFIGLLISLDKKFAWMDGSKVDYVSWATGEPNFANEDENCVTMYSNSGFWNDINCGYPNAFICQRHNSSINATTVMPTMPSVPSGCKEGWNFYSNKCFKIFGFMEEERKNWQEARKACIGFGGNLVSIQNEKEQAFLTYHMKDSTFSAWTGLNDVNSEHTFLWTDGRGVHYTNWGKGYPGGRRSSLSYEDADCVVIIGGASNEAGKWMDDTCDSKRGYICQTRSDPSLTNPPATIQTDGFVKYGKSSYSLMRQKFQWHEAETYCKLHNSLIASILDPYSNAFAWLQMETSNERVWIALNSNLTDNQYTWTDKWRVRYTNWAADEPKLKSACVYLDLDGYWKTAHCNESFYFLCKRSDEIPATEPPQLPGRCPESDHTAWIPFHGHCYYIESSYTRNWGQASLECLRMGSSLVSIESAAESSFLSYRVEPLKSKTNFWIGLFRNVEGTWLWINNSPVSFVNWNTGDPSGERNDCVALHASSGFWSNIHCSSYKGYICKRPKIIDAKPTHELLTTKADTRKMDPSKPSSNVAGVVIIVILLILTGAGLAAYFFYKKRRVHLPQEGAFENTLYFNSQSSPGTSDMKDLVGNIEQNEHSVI
# Protocol: All SPR experiments were carried out using a Biacore T200 Biosensor instrument (GE Health Life Sciences, Piscataway, NJ). CM5 sensor chips, amine coupling reagents, and running buffers used in the binding analysis were obtained from Cytivalifesciences (Marlborough, MA).
# Recombinant human CD206 was purchased from R&D systems (Catalog #2534-MR-050). CD206 protein was immobilized onto a CM5 sensor chip surface via standard amine coupling chemistry, using HBS-P+ running buffer (10 mM HEPES, [pH 7.4], 150 mM NaCl, and 0.05% Surfactant 20) at 25° C., as per manufacturer recommendation (Cytiva, Marlborough, MA). Briefly, carboxyl groups on the sensor chip flow cell surface (flow cell 2) were activated by injecting an equal mixture of 200 mM N-hydroxysuccinimide (NHS) and 50 mM 1-ethyl-3-(3-dimethylaminopropyl) carbodiimide hydrochloride) (EDC) at a flow rate of 10 μl/min. CD206 (25 μg/mL) was then diluted in 10 mM sodium acetate buffer pH 5.0 and injected over the surface at a flow rate of 10 μl/min until a level of 5000 resonance units (RU) was reached. This was followed by a 7 min injection of 1 M ethanolamine (pH 8) to block excessive reactive esters and wash away any non-covalently bound CD206. A blank flow cell surface (flow cell 1) was similarly activated with no protein injection, and used as a reference to subtract non-specific binding and bulk refractive index. […]
# [7] = tested on: PDL1 unresponsive melanoma; conditions: PDL1 unresponsive melanoma murine models; cited from earlier work
# [8] = tested on: tumor associated macrophages (TAMs); conditions: cited from earlier work
# [9] = tested on: CD206 macrophages; conditions: through interactions with CD206 macrophages; cited from earlier work
molecule,measurement,setting,value
"N=C(N)NCCC[C@H](NC(=O)[C@H](Cc1c[nH]c2ccccc12)NC(=O)[C@H](CCCCN)NC(=O)[C@H](Cc1ccccc1)NC(=O)CNC(=O)CNC(=O)[C@H](Cc1ccccc1)NC(=O)[C@H](CCCCN)NC(=O)[C@H](Cc1c[nH]c2ccccc12)NC(=O)[C@H](CCCNC(=N)N)NC(=O)CN1CCN(CC(=O)O)CCN(CC(=O)O)CCN(CC(=O)O)CC1)C(=O)O [[^68Ga]RP832c, metal not drawn] ({DOTA}-RWKFGGFKWR-OH)",free ^68Ga (^68Ga remained complexed),[1],less than one percent free ^68Ga
same,SUV at 0.25 h,[2],0.25 SUV
same,SUV at 40 min,[2],0.5 SUV
same,highest signal in maximum intensity projections (MIPs),[3],kidneys and bladder
same,highest signal in MIP images,[4],bladder
same,tissue uptake at 1.5 h,"[5]; 15 uCi, liver",1.66 %ID/g
same,tissue uptake at 1.5 h,"[5]; 15 uCi, spleen",0.67 %ID/g
same,tissue uptake at 1.5 h,"[5]; 15 uCi, tumor",0.4 %ID/g
same,tissue uptake at 1.5 h,[5]; liver,1.46 %ID/g
same,tissue uptake at 1.5 h,[5]; spleen,0.91 %ID/g
same,tissue uptake at 1.5 h,[5]; tumor,0.57 %ID/g
"DOTA-MART-1: MART-1 peptide with DOTA, not radiolabeled, control in SPR",binding sensorgram,[6],no binding
RWKFGGFKWR [RP-832c],effect on tumor resistance,[7],shown promise in inhibiting tumor resistance
same,effect on population of tumor associated macrophages,[8],shift the population of tumor associated macrophages (TAMs) from M2 (pro-tumor) towards a M1 phenotype (anti-tumor)
same,effect on bleomycin induced pulmonary fibrosis,[9],inhibit bleomycin induced pulmonary fibrosis

# Reference: patent publication US20250161505A1, “CD206 Targeted Peptide Conjugates and Methods of Using the Same” (Riptide Bioscience, Inc., priority 2022, published 2025)
